Results published in article PMC8887654 (ACS infectious diseases, 2022).
Where “and” joins values, the source holds several entries; their conditions need not be identical. Equal values may be shown once.

Tests used:
RPTEC = conditions: human
subgroup 2b PLpros = assay: PLpro inhibition IC50, text summary over all three PLpros; assay type: biochemical; conditions: read-out: IC50 values; text summary for the most potent inhibitors
BEAS-2B cells = conditions: human
MHV PLP2 = conditions: cited from earlier work
BtSCoV-Rf1.2004 PLpro = assay type: biochemical
MERS PLpro = conditions: cited from earlier work
SARS-2 PLpro = conditions: cited from earlier work
SARS PLpro = conditions: cited from earlier work

Row | Molecule | CC50 relative to IC50 (RPTEC) | IC50 (subgroup 2b PLpros) | CC50 relative to IC50 (BEAS-2B cells) | Kcat (MHV PLP2) | Km (MHV PLP2) | Kcat (BtSCoV-Rf1.2004 PLpro) | Km (BtSCoV-Rf1.2004 PLpro) | Kcat (MERS PLpro) | Km (MERS PLpro) | Kcat (SARS-2 PLpro) | Km (SARS-2 PLpro) | Kcat (SARS PLpro) | Km (SARS PLpro) | observed rate (no maximum turnover calculable) (BtSCoV-Rf1.2004 PLpro)
1 | Cc1ccc(N)cc1C(=O)N[C@H](C)c1cccc2ccccc12 [GRL0617, 5-Amino-2-methyl-N-[(R)-1-(1-naphthyl)ethyl]benzamide] | more than five times the IC50 | < 10 µM | more than five times the IC50 |  |  |  |  |  |  |  |  |  |  | 
2 | Ubiquitin–7-amino-4-methylcourmarin [Ub-AMC] |  |  |  | 0.83 ± 0.0483 s⁻¹ | 1.3 ± 0.2 µM | 0.232 ± 0.0067 s⁻¹ | 14.3 ± 0.9 µM | 0.313 ± 0.02 s⁻¹ | 14.3 ± 2 µM | 0.167 ± 0.013 s⁻¹ | 7.9 ± 1.4 µM | 1.26 ± 0.135 s⁻¹ | 50.6 ± 7.4 µM | 
3 | human ISG15-7-amino-4-methylcourmarin [ISG15-AMC] |  |  |  |  |  |  |  | 0.543 ± 0.03 s⁻¹ | 3.3 ± 0.5 µM | 0.667 ± 0.03 s⁻¹ | 3.9 ± 0.5 µM | 7.27 s⁻¹ and 7.27 ± 0.667 s⁻¹ | 15.1 ± 2.4 µM | 595 min⁻¹
